Data taken from patent publication US20100173430A1.

Key:
[1] = target: human IgG (Sigma) (human); assay: SPR (BIAcore); protein G layer on gold thin film, human IgG 100 ug/ml injected
[2] = target: anti-human Kallikrein 3/PSA antibody (R&D systems); assay: SPR (BIAcore); protein G layer on gold thin film, anti-PSA antibody 0.5 ug/ml injected

change in surface plasmon resonance signal [1]: 1000 RU
change in surface plasmon resonance signal [2]: 114 RU
Substance: untagged Streptococcal protein G variant recombinant protein (B1 and B2 domains, not tagged with cysteine) (from UniProt P19909 313-497)
